From patent publication US5593834

System: AluI restriction endonuclease
Experiment: cleavage_in_vitro
[1] = 8 mM MgCl2, 2 mM CaCl2, 10 mM Tris pH 7.5

ATATAGCTATAT (double strand) [(AT)2 12-mer]
relative cleavage rate constant (fold kcomp vs (AA)2) (fastest substrate, 8 mM MgCl2, 2 mM CaCl2, 10 mM Tris pH 7.5, 16% glycerol): 3.02

ATATATAGCTATATAT (double strand) [(AT)3 16-mer]
binding signal (fold kcomp vs (AA)3) [1]: 2.95

ATATATATAGCTATATATAT (double strand) [(AT)4 20-mer]
binding signal (fold kcomp vs (AA)4) [1]: 3
